{"source": "patent EP0901379B1", "molecular_target": "human MIP-1α (human) (UniProt P10147)", "sequence (P10147 24-92 limits assumed)": "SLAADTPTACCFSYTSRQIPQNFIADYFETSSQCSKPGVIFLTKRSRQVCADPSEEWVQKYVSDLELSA", "assay": "125I-MIP-1α bound to cells with 200X molar excess M-T1, Exp. 1", "data": [{"substance": "myxoma T1 protein (M-T1)", "values": [{"measurement": "Surface Bound MIP-1α", "result": 978, "unit": "cpm"}]}]}
